Tests used:
[1] = target: ALys amyloid fibrils extracted from human amyloidotic tissue (human) (UniProt P61626); assay: 125I-SAP binding to fibrils; ALys fibrils at 0.002 A280-A320 units/ml; mean of 2 replicates
[2] = target: ALys amyloid fibrils extracted from human amyloidotic tissue (human) (UniProt P61626); assay: 125I-SAP binding to fibrils; ALys fibrils at 0.05 A280-A320 units/ml; mean of 2 replicates
[3] = target: ALys amyloid fibrils extracted from human amyloidotic tissue (human) (UniProt P61626); assay: 125I-SAP binding to fibrils; ALys fibrils at 0.2 A280-A320 units/ml; mean of 2 replicates
[4] = target: ALys amyloid fibrils extracted from human amyloidotic tissue (human) (UniProt P61626); assay: 125I-SAP binding to fibrils; ALys fibrils at 0.02 A280-A320 units/ml; mean of 2 replicates

human serum amyloid P component (SAP), 125I-labelled (from UniProt P02743 20-223)
% ^125I-SAP counts bound [1]: 7% | % ^125I-SAP counts bound [2]: 72% | % ^125I-SAP counts bound [3]: 79% | % ^125I-SAP counts bound [4]: 45%
